Assay [1] addresses recombinant Motavizumab human IgE (rMota-hIgE) (human) (UniProt P01854). The experiment in a line: hIgE binding ELISA. Background: An ELISA detects its analyte on a solid surface through an enzyme-linked reagent.
Assay [2] addresses human IgE pre-bound on human basophils (human) (UniProt P01854). The experiment in a line: cell-based or functional assay.

Chain of recombinant Motavizumab human IgE (rMota-hIgE) (human) (P01854 other isoform, or with tags, fused parts or gaps limits assumed, form in doubt): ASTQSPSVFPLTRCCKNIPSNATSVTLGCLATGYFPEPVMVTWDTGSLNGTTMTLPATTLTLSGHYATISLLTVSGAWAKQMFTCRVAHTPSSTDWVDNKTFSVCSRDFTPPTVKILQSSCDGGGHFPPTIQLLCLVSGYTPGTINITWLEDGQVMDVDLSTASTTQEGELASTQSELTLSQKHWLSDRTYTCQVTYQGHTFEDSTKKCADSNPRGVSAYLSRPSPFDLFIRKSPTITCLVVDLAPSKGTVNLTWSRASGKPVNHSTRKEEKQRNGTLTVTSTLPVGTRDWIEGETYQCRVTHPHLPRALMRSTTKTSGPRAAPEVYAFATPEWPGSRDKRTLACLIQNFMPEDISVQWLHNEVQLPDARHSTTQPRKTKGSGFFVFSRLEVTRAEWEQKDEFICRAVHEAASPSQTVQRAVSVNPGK
Chain of human IgE pre-bound on human basophils (human) (P01854 whole entry, chain 1 of 2): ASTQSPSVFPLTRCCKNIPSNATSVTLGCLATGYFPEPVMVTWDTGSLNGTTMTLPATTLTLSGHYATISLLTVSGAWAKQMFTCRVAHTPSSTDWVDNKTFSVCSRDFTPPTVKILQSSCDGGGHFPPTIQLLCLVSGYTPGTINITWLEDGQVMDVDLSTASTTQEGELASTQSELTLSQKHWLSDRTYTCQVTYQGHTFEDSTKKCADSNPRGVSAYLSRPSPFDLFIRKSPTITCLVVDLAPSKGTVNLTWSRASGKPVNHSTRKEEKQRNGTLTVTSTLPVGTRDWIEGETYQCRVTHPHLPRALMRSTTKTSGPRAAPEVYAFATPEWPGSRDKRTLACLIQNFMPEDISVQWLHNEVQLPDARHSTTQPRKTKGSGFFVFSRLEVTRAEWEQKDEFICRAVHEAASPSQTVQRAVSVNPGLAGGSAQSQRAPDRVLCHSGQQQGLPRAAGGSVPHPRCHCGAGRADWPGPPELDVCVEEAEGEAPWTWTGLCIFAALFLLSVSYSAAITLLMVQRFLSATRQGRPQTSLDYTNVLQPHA
Chain of human IgE pre-bound on human basophils (human) (P12319 26-257, chain 2 of 2, further chain): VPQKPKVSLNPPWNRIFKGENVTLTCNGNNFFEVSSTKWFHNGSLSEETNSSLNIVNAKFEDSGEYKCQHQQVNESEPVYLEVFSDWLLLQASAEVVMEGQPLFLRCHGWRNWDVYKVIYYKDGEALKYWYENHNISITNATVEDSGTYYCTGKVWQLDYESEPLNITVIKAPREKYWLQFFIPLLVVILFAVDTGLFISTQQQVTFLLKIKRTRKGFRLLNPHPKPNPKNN

B1: CL-2C mAb 16 (antibody, V domains shown)
VH: QVQLVQSGAEVMKPGSSVKVSCKASGYTFSWYWLEWVRQAPGHGLEWMGEIDPGTFTTHYNEKFKARVTFTADTSTSTAYMELSSLRSEDTAVYYCARFSHFSGSHYDYFDYWGQGTLVTVSS
VL: EIVMTQSPATLSVSPGERATLSCRASQSIGTNIHWYQQKPGQAPRLLIYHASESISGIPARFSGSGSGTEFTLTISSLQSEDFAVYYCQQSDSHPTTFGGGTKVEIK
Consider B1, for which, in assay [1], the Ratio OD450 pH 7.4/pH 6 is 2.24.

B2: CL-2C mAb 28 (antibody, V domains shown)
VH: QVQLVQSGAEVMKPGSSVKVSCKASGYTFSWYHLEWVRQAPGHGLEWMGEIDPGTFTTNYNEKFKARVTFTADTSTSTAYMELSSLRSEDTAVYYCARFSHFSGSHYDYFDYWGQGTLVTVSS
VL: EIVMTQSPATLSVSPGERATLSCRASQSIGTNIHWYQQKPGQAPRLLIYHASESISGIPARFSGSGSGTEFTLTISSLQSEDFAVYYCQQSWSWPTTFGGGTKVEIK
As to B2, the Ratio OD450 pH 7.4/pH 6 in assay [1] stood at 5.54.

B3: CL-2C mAb 38 (antibody, V domains shown)
VH: QVQLVQSGAEVMKPGSSVKVSCKASGYTFSWYHLEWVRQAPGHGLEWMGEIDPGTFTTNYNEKFKARVTFTADTSTSTAYMELSSLRSEDTAVYYCARFSHFSGSHYDYFDYWGQGTLVTVSS
VL: EIVMTQSPATLSVSPGERATLSCRASQSIGTNIHWYQQKPGQAPRLLIYYASESISGIPARFSGSGSGTEFTLTISSLQSEDFAVYYCQQSWSWPTTFGGGTKVEIK
For the molecule B3, the Ratio OD450 pH 7.4/pH 6 in assay [1] worked out at 4.48.

B4: CL-2C mAb 29 (antibody, V domains shown)
VH: QVQLVQSGAEVMKPGSSVKVSCKASGYTFSWYHLEWVRQAPGHGLEWMGEIDPGTFTTNYNEKFKARVTFTADTSTSTAYMELSSLRSEDTAVYYCARFSHFSGHNYDYFDYWGQGTLVTVSS
VL: EIVMTQSPATLSVSPGERATLSCRASQSIGTNIHWYQQKPGQAPRLLIYHASESISGIPARFSGSGSGTEFTLTISSLQSEDFAVYYCQQSWSWPTTFGGGTKVEIK
In the case of B4, in assay [1], the Ratio OD450 pH 7.4/pH 6 is 15.3.

B5: CL-2C mAb 26 (antibody, V domains shown)
VH: QVQLVQSGAEVMKPGSSVKVSCKASGYTFSWYWLEWVRQAPGHGLEWMGEIDPGTFTTHYNEKFKARVTFTADTSTSTAYMELSSLRSEDTAVYYCARFSHFSGSHYDYFDYWGQGTLVTVSS
VL: EIVMTQSPATLSVSPGERATLSCRASQSIGTNIHWYQQKPGQAPRLLIYHASESISGIPARFSGSGSGTEFTLTISSLQSEDFAVYYCQQSWSWPTTFGGGTKVEIK
Regarding B5, the Ratio OD450 pH 7.4/pH 6 in assay [1] worked out at 44.6.

B6: CL-2C mAb 35 (antibody, V domains shown)
VH: QVQLVQSGAEVMKPGSSVKVSCKASGYTFSWYWLEWVRQAPGHGLEWMGEIDPGTFTTNYNEKFKARVTFTADTSTSTAYMELSSLRSEDTAVYYCARFSHFSGSNYDYFDYWGQGTLVTVSS
VL: EIVMTQSPATLSVSPGERATLSCRASQSIGTNIHWYQQKPGQAPRLLIYYASESISGIPARFSGSGSGTEFTLTISSLQSEDFAVYYCQQSWSHPTTFGGGTKVEIK
On to B6, for which, in assay [1], the Ratio OD450 pH 7.4/pH 6 was found to be 0.69.

B7: CL-2C mAb 39 (antibody, V domains shown)
VH: QVQLVQSGAEVMKPGSSVKVSCKASGYTFSWYHLEWVRQAPGHGLEWMGEIDPGTFTTNYNEKFKARVTFTADTSTSTAYMELSSLRSEDTAVYYCARFSHFSGHNYDYFDYWGQGTLVTVSS
VL: EIVMTQSPATLSVSPGERATLSCRASQSIGTNIHWYQQKPGQAPRLLIYYASESISGIPARFSGSGSGTEFTLTISSLQSEDFAVYYCQQSWSWPTTFGGGTKVEIK
On to B7, for which the Ratio OD450 pH 7.4/pH 6 in assay [1] was found to be 7.59.

B8: CL-2C mAb 32 (antibody, V domains shown)
VH: QVQLVQSGAEVMKPGSSVKVSCKASGYTFSWYHLEWVRQAPGHGLEWMGEIDPGTFTTNYNEKFKARVTFTADTSTSTAYMELSSLRSEDTAVYYCARFSHFSGSNHDYFDYWGQGTLVTVSS
VL: EIVMTQSPATLSVSPGERATLSCRASQSIGTNIHWYQQKPGQAPRLLIYYASESISGIPARFSGSGSGTEFTLTISSLQSEDFAVYYCQQSWSHPTTFGGGTKVEIK
With B8, the Ratio OD450 pH 7.4/pH 6 in assay [1] turned out to be 4.13.

B9: CL-2C mAb 30 (antibody, V domains shown)
VH: QVQLVQSGAEVMKPGSSVKVSCKASGYTFSWYWLEWVRQAPGHGLEWMGEIDPGTFTTNYNEKFKARVTFTADTSTSTAYMELSSLRSEDTAVYYCARFSHFSGSNYDYFDYWGQGTLVTVSS
VL: EIVMTQSPATLSVSPGERATLSCRASQSIGTNIHWYQQKPGQAPRLLIYHASESISGIPARFSGSGSGTEFTLTISSLQSEDFAVYYCQQSWSWPTTFGGGTKVEIK
Take B9: the Ratio OD450 pH 7.4/pH 6 in assay [1] was found to be 14.

B10: CL-2C mAb 20 (antibody, V domains shown)
VH: QVQLVQSGAEVMKPGSSVKVSCKASGYTFSWYWLEWVRQAPGHGLEWMGEIDPGTFTTNYNEKFKARVTFTADTSTSTAYMELSSLRSEDTAVYYCARFSHFSGSNYDYFDYWGQGTLVTVSS
VL: EIVMTQSPATLSVSPGERATLSCRASQSIGTNIHWYQQKPGQAPRLLIYHASESISGIPARFSGSGSGTEFTLTISSLQSEDFAVYYCQQSDSHPTTFGGGTKVEIK
Consider B10, for which the Ratio OD450 pH 7.4/pH 6 in assay [1] was determined as 5.46.

B11: CL-2C mAb 17 (antibody, V domains shown)
VH: QVQLVQSGAEVMKPGSSVKVSCKASGYTFSWYHLEWVRQAPGHGLEWMGEIDPGTFTTNYNEKFKARVTFTADTSTSTAYMELSSLRSEDTAVYYCARFSHFSGSNHDYFDYWGQGTLVTVSS
VL: EIVMTQSPATLSVSPGERATLSCRASQSIGTNIHWYQQKPGQAPRLLIYHASESISGIPARFSGSGSGTEFTLTISSLQSEDFAVYYCQQSDSHPTTFGGGTKVEIK
As for B11, the Ratio OD450 pH 7.4/pH 6 in assay [1] turned out to be 1.03.

B12: CL-2C mAb 33 (antibody, V domains shown)
VH: QVQLVQSGAEVMKPGSSVKVSCKASGYTFSWYHLEWVRQAPGHGLEWMGEIDPGTFTTNYNEKFKARVTFTADTSTSTAYMELSSLRSEDTAVYYCARFSHFSGSHYDYFDYWGQGTLVTVSS
VL: EIVMTQSPATLSVSPGERATLSCRASQSIGTNIHWYQQKPGQAPRLLIYYASESISGIPARFSGSGSGTEFTLTISSLQSEDFAVYYCQQSWSHPTTFGGGTKVEIK
Take B12: the Ratio OD450 pH 7.4/pH 6 in assay [1] stood at 2.61.

B13: CL-2C mAb 34 (antibody, V domains shown)
VH: QVQLVQSGAEVMKPGSSVKVSCKASGYTFSWYHLEWVRQAPGHGLEWMGEIDPGTFTTNYNEKFKARVTFTADTSTSTAYMELSSLRSEDTAVYYCARFSHFSGHNYDYFDYWGQGTLVTVSS
VL: EIVMTQSPATLSVSPGERATLSCRASQSIGTNIHWYQQKPGQAPRLLIYYASESISGIPARFSGSGSGTEFTLTISSLQSEDFAVYYCQQSWSHPTTFGGGTKVEIK
As to B13, in assay [1], the Ratio OD450 pH 7.4/pH 6 was determined as 5.5.

B14: CL-2C mAb 31 (antibody, V domains shown)
VH: QVQLVQSGAEVMKPGSSVKVSCKASGYTFSWYWLEWVRQAPGHGLEWMGEIDPGTFTTHYNEKFKARVTFTADTSTSTAYMELSSLRSEDTAVYYCARFSHFSGSHYDYFDYWGQGTLVTVSS
VL: EIVMTQSPATLSVSPGERATLSCRASQSIGTNIHWYQQKPGQAPRLLIYYASESISGIPARFSGSGSGTEFTLTISSLQSEDFAVYYCQQSWSHPTTFGGGTKVEIK
As for B14, the Ratio OD450 pH 7.4/pH 6 in assay [1] was 10.9.

B15: CL-2C mAb 36 (antibody, V domains shown)
VH: QVQLVQSGAEVMKPGSSVKVSCKASGYTFSWYWLEWVRQAPGHGLEWMGEIDPGTFTTHYNEKFKARVTFTADTSTSTAYMELSSLRSEDTAVYYCARFSHFSGSHYDYFDYWGQGTLVTVSS
VL: EIVMTQSPATLSVSPGERATLSCRASQSIGTNIHWYQQKPGQAPRLLIYYASESISGIPARFSGSGSGTEFTLTISSLQSEDFAVYYCQQSWSWPTTFGGGTKVEIK
Take B15: in assay [1], the Ratio OD450 pH 7.4/pH 6 turned out to be 10.7.

B16: CL-2C mAb 40 (antibody, V domains shown)
VH: QVQLVQSGAEVMKPGSSVKVSCKASGYTFSWYWLEWVRQAPGHGLEWMGEIDPGTFTTNYNEKFKARVTFTADTSTSTAYMELSSLRSEDTAVYYCARFSHFSGSNYDYFDYWGQGTLVTVSS
VL: EIVMTQSPATLSVSPGERATLSCRASQSIGTNIHWYQQKPGQAPRLLIYYASESISGIPARFSGSGSGTEFTLTISSLQSEDFAVYYCQQSWSWPTTFGGGTKVEIK
Consider B16, for which the Ratio OD450 pH 7.4/pH 6 in assay [1] was found to be 1.

B17: CL-2C mAb 18 (antibody, V domains shown)
VH: QVQLVQSGAEVMKPGSSVKVSCKASGYTFSWYHLEWVRQAPGHGLEWMGEIDPGTFTTNYNEKFKARVTFTADTSTSTAYMELSSLRSEDTAVYYCARFSHFSGSHYDYFDYWGQGTLVTVSS
VL: EIVMTQSPATLSVSPGERATLSCRASQSIGTNIHWYQQKPGQAPRLLIYHASESISGIPARFSGSGSGTEFTLTISSLQSEDFAVYYCQQSDSHPTTFGGGTKVEIK
As to B17, the Ratio OD450 pH 7.4/pH 6 in assay [1] came to 0.97.

B18: CL-2C mAb 27 (antibody, V domains shown)
VH: QVQLVQSGAEVMKPGSSVKVSCKASGYTFSWYHLEWVRQAPGHGLEWMGEIDPGTFTTNYNEKFKARVTFTADTSTSTAYMELSSLRSEDTAVYYCARFSHFSGSNHDYFDYWGQGTLVTVSS
VL: EIVMTQSPATLSVSPGERATLSCRASQSIGTNIHWYQQKPGQAPRLLIYHASESISGIPARFSGSGSGTEFTLTISSLQSEDFAVYYCQQSWSWPTTFGGGTKVEIK
Consider B18, for which the Ratio OD450 pH 7.4/pH 6 in assay [1] came out at 19.4.

B19: CL-2C mAb 19 (antibody, V domains shown)
VH: QVQLVQSGAEVMKPGSSVKVSCKASGYTFSWYHLEWVRQAPGHGLEWMGEIDPGTFTTNYNEKFKARVTFTADTSTSTAYMELSSLRSEDTAVYYCARFSHFSGHNYDYFDYWGQGTLVTVSS
VL: EIVMTQSPATLSVSPGERATLSCRASQSIGTNIHWYQQKPGQAPRLLIYHASESISGIPARFSGSGSGTEFTLTISSLQSEDFAVYYCQQSDSHPTTFGGGTKVEIK
In the case of B19, in assay [1], the Ratio OD450 pH 7.4/pH 6 stood at 1.04.

B20: 18E2VLHis-ABDEG (antibody, V domains shown)
VH: QLQLVESGGGLVQPGGSLRLSCAASGFTFSSYVMSWVRQAPGKGLEWVSSIYHDGSHTYYADFVKGRFTISRDNAKNTLYLQMNSLKSEDTAVYYCASGTSYSGSYYYTDPFFGSWGQGTQVTVSS
VL: NFMLTQPSALSVTLGQTARITCQGDRLGSRYIHWYQQKPPQAPVLVIHDDDRRPSGIPERFSGSSSGGTATLTISGAQAEDDGDYYCQSADSSGNPVFGGGTHLTVL
As for B20, in assay [2], the % CD63+ basophils at 20 µg/mL worked out at 3.7%, the % CD63+ basophils at 100 µg/mL was 3.1%, the SI (Stimulation Index) at 20 µg/mL amounted to 1.48 and the SI (Stimulation Index) at 100 µg/mL was 1.24.

Values taken from patent publication US20220177604A1.
